Experimental data taken from paper PMC5464768, “ER retention is imposed by COPII protein sorting and attenuated by 4-phenylbutyrate” (eLife, 2017).

Legend:
[1] = target: Sec24d (full-length, wild type) (H. sapiens) (UniProt O94855)
[2] = target: Sec24d (full-length, wild type) (H. sapiens) (UniProt O94855); remark: listed apart in the source

Sequence of Sec24d (full-length, wild type) (H. sapiens) (O94855 whole entry): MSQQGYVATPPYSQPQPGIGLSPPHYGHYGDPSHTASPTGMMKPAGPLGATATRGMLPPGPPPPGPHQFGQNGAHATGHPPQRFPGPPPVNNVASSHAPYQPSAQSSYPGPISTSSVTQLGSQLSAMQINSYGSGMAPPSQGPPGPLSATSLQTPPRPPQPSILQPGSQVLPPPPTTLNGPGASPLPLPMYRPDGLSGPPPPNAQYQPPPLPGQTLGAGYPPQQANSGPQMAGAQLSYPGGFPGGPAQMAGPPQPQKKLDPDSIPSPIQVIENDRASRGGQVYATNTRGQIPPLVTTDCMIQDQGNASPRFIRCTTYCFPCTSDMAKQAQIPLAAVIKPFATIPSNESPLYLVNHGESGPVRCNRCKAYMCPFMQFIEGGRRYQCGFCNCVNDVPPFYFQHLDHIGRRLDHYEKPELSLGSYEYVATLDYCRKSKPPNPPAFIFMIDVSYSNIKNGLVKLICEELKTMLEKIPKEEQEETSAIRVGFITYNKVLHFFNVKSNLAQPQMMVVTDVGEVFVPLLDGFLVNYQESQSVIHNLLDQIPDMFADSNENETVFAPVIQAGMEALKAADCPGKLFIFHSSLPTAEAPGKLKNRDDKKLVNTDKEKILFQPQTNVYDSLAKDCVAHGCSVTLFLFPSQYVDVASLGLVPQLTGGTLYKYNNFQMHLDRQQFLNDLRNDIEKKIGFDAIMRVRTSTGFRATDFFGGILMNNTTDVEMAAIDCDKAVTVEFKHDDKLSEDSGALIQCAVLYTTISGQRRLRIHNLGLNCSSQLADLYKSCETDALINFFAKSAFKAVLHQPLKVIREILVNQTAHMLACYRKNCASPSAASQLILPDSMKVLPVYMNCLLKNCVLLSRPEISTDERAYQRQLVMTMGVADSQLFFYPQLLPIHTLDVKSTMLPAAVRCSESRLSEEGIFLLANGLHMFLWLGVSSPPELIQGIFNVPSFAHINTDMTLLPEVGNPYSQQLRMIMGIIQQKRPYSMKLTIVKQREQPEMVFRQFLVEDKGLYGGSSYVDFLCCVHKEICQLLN
Sequence of p24β1 (P49020 16-196): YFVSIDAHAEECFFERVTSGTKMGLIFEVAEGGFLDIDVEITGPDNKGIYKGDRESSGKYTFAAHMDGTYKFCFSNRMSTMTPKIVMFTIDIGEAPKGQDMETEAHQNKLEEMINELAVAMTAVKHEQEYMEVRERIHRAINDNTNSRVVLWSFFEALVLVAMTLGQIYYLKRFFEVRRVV

Substance | reduction of the packaging rate into COPII vesicles (Sec23a/24d) budded in the presence of 10 mM 4-PBA [1] | packaging efficiency into COPII vesicles budded with wild-type COPII (Sec23a/24d), amount in vesicle as % of protein present in starting permeabilized cells; CHO-LDLR G544V cells [2] | packaging efficiency into COPII vesicles budded with wild-type COPII (Sec23a/24d), amount in vesicle as % of protein present in starting permeabilized cells; wild-type CHO cells [2]
p24β1 (from UniProt P49020 16-196) (natural protein) | 50 % reduction | 10.6% | 
ERGIC-53 (natural protein) | 50 % reduction | 4.5% | 
p24α2 (natural protein) |  | 8.7% | 10.9%
p24δ1 (natural protein) |  | 7.7% | 4.6%
p24α3 (natural protein) | 50 % reduction | 6.4% | 6.4%
